These results are taken from US20050164945A1, “Endotheliase-1 ligands” (priority 2003, published 2005).

In assay [1] the target is T1, recombinant endotheliase 1 (human), Q9UL52.
T1 chain: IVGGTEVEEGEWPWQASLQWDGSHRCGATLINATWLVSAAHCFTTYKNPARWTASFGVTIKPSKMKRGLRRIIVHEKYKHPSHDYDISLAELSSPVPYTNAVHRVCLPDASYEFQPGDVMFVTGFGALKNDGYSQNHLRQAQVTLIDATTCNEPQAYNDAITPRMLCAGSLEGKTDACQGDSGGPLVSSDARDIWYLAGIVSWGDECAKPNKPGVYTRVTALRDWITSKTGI
Put plainly: inhibition of ET1 activity.

The target of assay [2] is T1, recombinant endotheliase 1 (human), …. Put plainly: cell-based or functional assay.

The term Ki denotes the dissociation constant of the complex between target and ligand, obtained from inhibition or displacement.

As for AGVQHCESRDLPCLIKGT (modifications not checked) [DX-1051], the inhibitory constant (Ki) in assay [1] was in the range of 100 to 1000 nM. Further, the ET1 IC50 in assay [2] amounted to 770 nM. In the case of AGWPTCRGFWPDCGMMGT (modifications not checked) [DX-1135], the Ki in assay [1] lay within 100 to 1000 nM. In assay [2], the ET1 IC50 came out at 47 nM. As for AGNYMCKGYWPDCKMTGT (modifications not checked) [DX-1133], in assay [2], the ET1 IC50 was 350 nM.
